Laboratory results: publication PMC6890786, “Pseudomonas aeruginosa uses multiple receptors for adherence to laminin during infection of the respiratory tract and skin wounds” (Scientific Reports, 2019)

B1: recombinant OprD of P. aeruginosa PAO1, 6xHis-tagged (natural protein)
chain: DAFVSDQAEAKGFIEDSSLDLLLRNYYFNRDGKSGSGDRVDWTQGFLTTYESGFTQGTVGFGVDAFGYLGLKLDGTSDKTGTGNLPVMNDGKPRDDYSRAGGAVKVRISKTMLKWGEMQPTAPVFAAGGSRLFPQTATGFQLQSSEFEGLDLEAGHFTEGKEPTTVKSRGELYATYAGETAKSADFIGGRYAITDNLSASLYGAELEDIYRQYYLNSNYTIPLASDQSLGFDFNIYRTNDEGKAKAGDISNTTWSLAAAYTLDAHTFTLAYQKVHGDQPFDYIGFGRNGSGAGGDSIFLANSVQYSDFNGPGEKSWQARYDLNLASYGVPGLTFMVRYINGKDIDGTKMSDNNVGYKNYGYGEDGKHHETNLEAKYVVQSGPAKDLSFRIRQAWHRANADQGEGDQNEFRLIVDYPLSIL
notes: OprD (porin D, OccD1) of P. aeruginosa PAO1; open reading frame amplified from PAO1 genomic DNA and cloned into pET26(b)+; Labelled with 10 nm colloidal gold for TEM; also called porin D; OccD1; source: E. coli BL21(DE3), purified (Ni-NTA)
B2: recombinant EstA of P. aeruginosa PAO1, 6xHis-tagged (natural protein)
chain: APSPYSTLVVFGDSLSDAGQFPDPAGPAGSTSRFTNRVGPTYQNGSGEIFGPTAPMLLGNQLGIAPGDLAASTSPVNAQQGIADGNNWAVGGYRTDQIYDSITAANGSLIERDNTLLRSRDGYLVDRARQGLGADPNALYYITGGGNDFLQGRILNDVQAQQAAGRLVDSVQALQQAGARYIVVWLLPDLGLTPATFGGPLQPFASQLSGTFNAELTAQLSQAGANVIPLNIPLLLKEGMANPASFGLAADQNLIGTCFSGNGCTMNPTYGINGSTPDPSKLLFNDSVHPTITGQRLIADYTYSLLSAPWELTLLPEMAHGTLRAYQDELRSQWQADWENWQNVGQWRGFVGGGGQRLDFDSQDSAASGDGNGYNLTLGGSYRIDEAWRAGVAAGFYRQKLEAGAKDSDYRMNSYMASAFVQYQENRWWADAALTGGYLDYDDLKRKFALGGGERSEKGDTNGHLWAFSARLGYDIAQQADSPWHLSPFVSADYARVEVDGYSEKGASATALDYDDQKRSSKRLGAGLQGKYAFGSDTQLFAEYAHEREYEDDTQDLTMSLNSLPGNRFTLEGYTPQDHLNRVSLGFSQKLAPELSLRGGYNWRKGEDDTQQSVSLALSLDF
notes: EstA, autotransporter esterase of P. aeruginosa PAO1; open reading frame amplified from PAO1 genomic DNA and cloned into pET26(b)+; Labelled with 10 nm colloidal gold for TEM; source: E. coli BL21(DE3), purified (Ni-NTA)
B3: recombinant Paf of P. aeruginosa, 6xHis-tagged (natural protein)
chain: EDGKRLRIGITLHPYYSYVSNIVGDKAEVVPLIPAGFNPHAYEPRAEDIKRIGTLDVVVLNGVGHDDFAERMIASSEKPGIPVIEANAKVPLLAATGMAARGAGKVVNPHTFLSISASITQVNTIARELGKLDPANAKAYTRNARAYAKRLRALRADALARLNKAPAADFRVATIHGAYDYLLREFGLEVTAVVEPAHGIEPSPSQLKKTIDQLKALDVKVIFSEIDFPSTYVETIQRESGVKLYSLSHISYGDYSAGKYEEEMARNLDTVVRAIQESGA

Assays:
Assay in all cases: BLI; OctetRed96; bacterial proteins immobilised on AR2G sensors by amino coupling; laminin-111 as analyte, 1.63 to 100 nM in PBS; 30 °C
[1] = target: recombinant PA3923 of P. aeruginosa PAO1, 6xHis-tagged (P. aeruginosa PAO1) (UniProt Q9HX90)
[2] = target: recombinant OprG of P. aeruginosa PAO1, 6xHis-tagged (P. aeruginosa PAO1) (UniProt Q9HWW1)
[3] = target: T1, Engelbreth-Holm-Swarm murine sarcoma laminin-111 (mouse, UniProt P19137 25-3083; P02469 22-1786; P02468 34-1607); settings: both partners purified
T1 construct: laminin alpha chain of laminin-111 (laminin subunit alpha-1), mouse; carries LG1-5 at its C-terminal end; laminin beta chain of laminin-111 (laminin subunit beta-1), mouse; laminin gamma chain of laminin-111 (laminin subunit gamma-1), mouse; Heterotrimer alpha/beta/gamma; Labelled with colloidal gold for the TEM experiment; also called L2020; source: bought: Sigma-Aldrich (L2020), …

Molecule | Kd [1] [nM] | Kd [2] [nM] | Kd [3] [nM]
Engelbreth-Holm-Swarm murine sarcoma laminin-111 (from UniProt P19137 25-3083; P02469 22-1786; P02468 34-1607) (complex) | 6.9 | 4.7 | 
B1 |  |  | 22
B2 |  |  | 1.7
B3 |  |  | 2.8
